Assay [1] deals with disulfide-linked BTN2A1 ectodomain homodimer (Cys247, leucine zippers) (human) (UniProt Q7KYR7). The assay is described as follows: SPR. (In general: In SPR one partner is held on a chip, and binding of the other changes the refractive index at the surface.)
Assay [2] has as its target soluble BTN3A1 ectodomain (IgV–IgC), homodimeric (human) (UniProt O00481). The assay is described as follows: SPR.
The target in assay [3] is soluble BTN2A1–BTN3A1–zipper ectodomain complex (wild type) (human) (UniProt Q7KYR7). The assay is described as follows: SPR.
Assay [4] concerns the target soluble BTN2A1^WT–BTN3A1^Glu106-Ala zipper ectodomain complex (human) (UniProt Q7KYR7). Description: SPR.
In assay [5] the target is soluble BTN2A1–BTN3A1–zipper ectodomain complex (wild type) (human) (UniProt Q7KYR7). Description: SPR. The source holds these as a separate data set.
In assay [6] the target is BTN3A1 Phe26-Ala on transfected NIH-3T3 cells (human) (UniProt O00481). The assay is described as follows: flow cytometry on cells.
For assay [7], the target named is BTN3A1 Lys37-Ala on transfected NIH-3T3 cells (human) (UniProt O00481). Description: flow cytometry on cells.
Assay [8] has as its target BTN3A1 Leu96-Ala on transfected NIH-3T3 cells (human) (UniProt O00481). Description: flow cytometry on cells. (Flow cytometry measures light scatter and fluorescence of single cells or particles in a stream.)
Assay [9] deals with BTN3A1 Ser42-Ala on transfected NIH-3T3 cells (human) (UniProt O00481). Description: flow cytometry on cells.

Where two headings read alike, the source gives them in different places.

“monomeric BTN3A1 IgV domain (domain or fragment)” came in with a Kd in assay [1] of 1100 µM. In other words, the millimolar range.
In [2], “soluble BTN2A1 ectodomain lacking Cys247 (monomeric) (from UniProt Q7KYR7 29-248) (domain or fragment)” displayed a Kd of 1800 µM.
soluble G115 Vγ9Vδ2^+ TCR His85γ-Ala displayed a dissociation constant Kd in [3] of 740 µM.
Take soluble G115 Vγ9Vδ2^+ TCR Lys53δ-Ala: the dissociation constant (Kd) in [2] is more than 1200 µM; in assay [3] it was 46 µM.
With “soluble Vγ9Vδ2^+ γδTCR clone G115, wild type”, the dissociation constant (Kd) is 37 µM in assay [4]; 85 µM in assay [5]; more than 4000 µM in assay [2]; 99 µM in [1]; 79 µM in assay [3]. Further, the reduction of G115 tetramer staining against wild-type BTN3A1 in assay [6], in [7], in assay [8] and in assay [9] was more than 90% in each case.

One may read the Kd as the concentration at which binding is half-saturated. Read a high Kd as lower affinity.
